Measured values reported in patent US20210060116A1 (published 2021).

Key:
[1] = target: Recombinant human p65 protein (r-p65) with DDK tag (catalog number TP320780) (human) (UniProt Q04206); experiment: plate ELISA, peptide 20-640 µM and r-p65, anti-DDK detection; at the lowest concentration evaluated
[2] = target: Recombinant human p65 protein (r-p65) with DDK tag (catalog number TP320780) (human) (UniProt Q04206); experiment: plate ELISA, Scatchard analysis by the method of Friguet et al.
[3] = target: T1, Recombinant human p65 protein (r-p65) with DDK tag (catalog number TP320780) (human, UniProt Q04206 1-551); experiment: score table: the mark stands in the column >3 of KD (uM)
T1 construct: mature; also called r-p65-DDK; human r-p65; not shown: DDK tag
T1 sequence (Q04206 whole entry): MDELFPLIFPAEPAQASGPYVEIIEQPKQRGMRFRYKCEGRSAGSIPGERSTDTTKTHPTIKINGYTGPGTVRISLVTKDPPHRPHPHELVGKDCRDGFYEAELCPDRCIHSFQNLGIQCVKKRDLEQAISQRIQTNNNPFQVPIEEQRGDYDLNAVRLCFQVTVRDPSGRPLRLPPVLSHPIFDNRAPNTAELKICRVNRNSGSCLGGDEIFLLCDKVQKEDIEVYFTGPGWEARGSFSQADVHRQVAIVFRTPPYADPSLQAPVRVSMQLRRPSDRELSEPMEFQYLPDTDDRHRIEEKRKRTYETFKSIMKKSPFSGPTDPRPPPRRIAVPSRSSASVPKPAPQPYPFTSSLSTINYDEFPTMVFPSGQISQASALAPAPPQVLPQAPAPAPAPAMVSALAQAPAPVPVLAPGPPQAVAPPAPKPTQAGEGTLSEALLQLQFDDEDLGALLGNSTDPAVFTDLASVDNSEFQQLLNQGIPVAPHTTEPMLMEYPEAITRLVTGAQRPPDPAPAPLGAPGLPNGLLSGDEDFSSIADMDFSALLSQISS

[4] = target: T1, Recombinant human p65 protein (r-p65) …; experiment: score table: the mark stands in the column <3 of KD (uM)

Chain of Recombinant human p65 protein (r-p65) with DDK tag (catalog number TP320780) (human) (Q04206 whole entry): as above

Ac-APKPYQPRG-NH2 [GA-1 (GILZ analog 1, as labelled in Examples 3 to 6)] was tested, and the percent bound r-p65 [1] was > 25% and the Kd [2] was 2290 nM.

Ac-EPAPLAPYG-NH2 [GA-2 (GILZ analog 2, as labelled in Examples 3 to 6)] was tested, and the percent bound r-p65 [1] was > 25% and the Kd [2] was 3240 nM.

Ac-APKPYQPRG-NH2 (also called Analog 20; GA-1) [PGA-1] was tested, and the Kd [3] was > 3000 nM.

Ac-EPAPLAPYG-NH2 (also called Analog 3; GA-2) [PGA-2] was tested, and the Kd [4] was < 3000 nM.

With Ac-EPAPYQPEG-NH2 (also called Analog 14) [PGA-3] the Kd [3] was > 3000 nM.

Ac-EPAPESPQV-NH2 (also called Analog 7) [PGA-4] was tested, and the Kd [3] was > 3000 nM.

Ac-EPAPEQPDG-NH2 (also called Analog 8) [PGA-5] was tested, and the Kd [3] was > 3000 nM.
